In patent US20020132976A1 (published 2002):

Target: T1, membrane-bound HLA-A0201 molecule on T2 cells (human)
T1 construct: whole, on cells; also called surface HLA-A0201 molecules; human MHC class 1 molecule
Experiment: T2 cell HLA-A0201 stabilisation, BB7.2 staining, flow cytometry
Method: Thus, the detection of this specific epitope is indicative of stable membrane-bound HLA-A0201 molecules loaded with peptide. Subsequent dissociation of peptides from the HLA class 1 MHC molecules results in the loss of BB7.2 monoclonal antibody binding.
T2 cells were propagated in Iscove's complete medium (iscove's medium supplemented with 10% heat-inactivated bovine serum, 120.0 units per ml of penicillin G sodium, 120 μg per ml of streptomycin sulphate, and 0.35 mg per ml of L-glutamine). The ability of PSA peptides (Table 1) to bind and stabilize surface HLA-A0201 molecules on T2 cells was determined utilizing a protocol documented in the art (Deng, Y. (1997) J Immune 158:1507-1515). In essence, 0.5×10⁶ T2 cells were incubated with 125.0 μM of the test peptide in 200.0 μl of serum-free culture medium (Iscove's medium supplemented with 120.0 units per ml of penicillin G sodium, 120.0 μg per ml of streptomycin sulphate and 0.35 mg per ml of L-glutamine) overnight at 37° C. Subsequently, cells were washed twice with Iscove's medium (without bovine serum) to remove free PSA peptide. […] The binding of BB7.2 was detected via the addition of 100.0 μl of PBA containing […] of goat anti-mouse IgG-Fc fluorescein (FITC) conjugate (BETHYL Laboratories Inc.). […] Samples were analyzed by Flow Cytometry. Results were expressed in units of Fluorescence Index (FI), calculated by the equation: […]

DLHVISNDV [CLP-317]: no binding.
